Experiment [1] addresses GFP-PIF^S-TCR (moxGFP-noF-PIF^S-TCRβ) (Aequorea victoria | A. thaliana | human) (UniProt Q8L5W7). In words: flow cytometry on cells + other: calcium influx (Indo-1), fit of a mathematical model; surface-bound DyLight650-PhyBt on GFP-PIF^S-TCR cells (90 s, 37 C, different PhyBt concentrations and continuous 660 nm intensities) and all calcium data fitted together by maximum likelihood; PhyBt modelled as dimers, off-rates of both steps set equal; parameters are for darkness.

For experiment [2] the target is unchanged.
For experiment [3] the target is unchanged. In words: flow cytometry on cells + other: calcium influx (Indo-1), fit of a mathematical model; same fit as a6; half-life ln2/(koff+ki) under continuous 660 nm light, at the high end of the range of light intensities used. A general note: Flow cytometry measures light scatter and fluorescence of single cells or particles in a stream.
Experiment [4] has the same target. The source holds these as a separate data set.

PhyB tetramers (fluorescently labeled streptavidin-based tetramers of PhyB_(1-651)-Avitag-His6), sequence (P14713 1-651): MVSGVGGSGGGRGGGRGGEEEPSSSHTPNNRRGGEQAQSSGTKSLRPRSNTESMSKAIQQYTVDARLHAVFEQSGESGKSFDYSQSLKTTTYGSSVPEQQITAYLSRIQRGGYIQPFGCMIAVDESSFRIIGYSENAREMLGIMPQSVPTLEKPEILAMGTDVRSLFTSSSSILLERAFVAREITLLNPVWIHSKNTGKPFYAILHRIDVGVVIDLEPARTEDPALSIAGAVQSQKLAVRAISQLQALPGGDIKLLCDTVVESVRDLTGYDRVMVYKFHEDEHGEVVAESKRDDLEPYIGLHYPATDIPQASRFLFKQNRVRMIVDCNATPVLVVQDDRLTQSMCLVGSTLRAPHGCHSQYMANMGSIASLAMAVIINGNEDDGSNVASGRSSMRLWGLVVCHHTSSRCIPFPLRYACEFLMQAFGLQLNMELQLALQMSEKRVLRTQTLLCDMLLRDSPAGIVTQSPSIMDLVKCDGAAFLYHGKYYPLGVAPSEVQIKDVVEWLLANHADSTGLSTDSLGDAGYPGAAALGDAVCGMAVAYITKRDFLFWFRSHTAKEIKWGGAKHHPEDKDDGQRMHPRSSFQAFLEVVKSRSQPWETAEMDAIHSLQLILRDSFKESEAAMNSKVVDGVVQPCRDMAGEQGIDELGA
PhyB tetramers (fluorescently labeled streptavidin-based tetramers of PhyB_(1-651)-Avitag-His6), sequence (P22629 25-183): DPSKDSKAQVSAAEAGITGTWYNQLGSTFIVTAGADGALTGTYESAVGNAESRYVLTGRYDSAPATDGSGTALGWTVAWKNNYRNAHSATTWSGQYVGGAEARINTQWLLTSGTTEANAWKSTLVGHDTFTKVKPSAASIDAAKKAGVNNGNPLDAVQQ

Broadly, the Kd is the constant that tells how readily two partners part at equilibrium. As to “PhyB tetramers (fluorescently labeled streptavidin-based tetramers of PhyB_(1-651)-Avitag-His6) (from UniProt P14713 1-651; P22629 25-183) (complex)”, in experiment [1], the Kd came to 22 nM; the Q = qon/qoff, association constant of multivalent binding step (darkness), dimensionless was found to be 11; the half-life of PhyB ON-PIF-TCR complex (darkness), ln(2)/koff stood at 40 s; the qon, binding rate of receptor cross-linking (second, bivalent step) came out at 0.19 s⁻¹. Moreover, the ongoing calcium response evoked by PhyBt(660) in the dark, then continuous 660 nm light of 2% to 32% intensity; intensity threshold to maintain the response (% 660 nm intensity) in experiment [2] turned out to be 3. Moreover, the half-life of the PhyB ON-TCR complex, ln2/(koff+ki), under continuous 660 nm light in experiment [3] came to 2 s. Further, in experiment [4], the calcium influx under continuous 660 nm light of different intensities (dark to 32%) and different PhyBt concentrations; intensity threshold for a calcium response (% 660 nm intensity) was 3.

Source of the values: publication PMC6488296.
